From FireProtDB
Values joined by “and” are separate entries in the source; they are usually repeats but may differ in a detail not shown here. Equal values may be shown once.

[1] = Saccharomyces cerevisiae (strain ATCC 204508 / S288c), pH 6, 46.5 °C, Thermal, Absorbance, Sodium phosphate 100 mM, reversible: yes, structure 1YCC
[2] = Saccharomyces cerevisiae (strain ATCC 204508 / S288c), pH 6, Thermal, Absorbance, Sodium phosphate 100 mM, reversible: yes, structure 1YCC
[3] = Saccharomyces cerevisiae (strain ATCC 204508 / S288c), pH 6, 20 °C, GdnHCl, Fluorescence, Sodium phosphate 0.1 M, reversible: yes, structure 1YCC
[4] = Saccharomyces cerevisiae (strain ATCC 204508 / S288c), pH 6, 20 °C, GdnHCl, Fluorescence, Sodium phosphate 0.1 M, reversible: yes
[5] = Saccharomyces cerevisiae (strain ATCC 204508 / S288c), pH 7, 25 °C, GdnHCl, CD, Tris 20 mM, NaCl 40 mM, reversible: yes
[6] = Saccharomyces cerevisiae (strain ATCC 204508 / S288c), pH 7.5, 22 °C, GdnHCl, CD, Tris 20 mM, NaCl 40 mM
[7] = Escherichia coli (strain K12), pH 7.2, 51.8 °C, Thermal, DSC, HEPES 0.05 mM, structure 1ANK
[8] = Escherichia coli (strain K12), pH 7.2, Thermal, DSC, HEPES 0.05 mM, structure 1ANK
[9] = Homo sapiens, pH 7.5, Thermal, CD, HEPES 0.8mM, NaCl 6mM, transition: 2, structure 6EW2
[10] = Escherichia coli (strain K12), pH 7.5, Thermal, CD, Potassium phosphate 10 mM, reversible: yes, structure 1EZA
[11] = Escherichia coli (strain K12), pH 7.5, Thermal, DSC, Potassium phosphate 10 mM, reversible: yes, structure 1EZA
[12] = Oryctolagus cuniculus, pH 7, Thermal, DSC, Glycerol 20 % v/v, KCl 100 mM, reversible: no, whole UniProt chain shown
[13] = Saccharomyces cerevisiae (strain ATCC 204508 / S288c), pH 4.6, 37 °C, Thermal, DSC, Potassium acetate 0.1 M, reversible: yes, structure 1YCC
[14] = Saccharomyces cerevisiae (strain ATCC 204508 / S288c), pH 7.5, 22 °C, GdnHCl, CD, Tris 20 mM, NaCl 40 mM, structure 1YCC
[15] = Gallus gallus, pH 7, 25 °C, NaClO4 titration, CD, PIPES 10 mM, NaCl 50 mM, reversible: no

Cytochrome c isoform 1 N58I, P00044, sequence (P00044 whole entry N58I, canonical isoform): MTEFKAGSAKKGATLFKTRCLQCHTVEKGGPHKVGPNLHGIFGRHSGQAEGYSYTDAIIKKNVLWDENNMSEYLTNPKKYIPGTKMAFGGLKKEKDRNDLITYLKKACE
Cytochrome c isoform 1 H39P|N58I, P00044 H39P N58I, sequence (P00044 whole entry H39P/N58I, canonical isoform): as the sequence (P00044 whole entry N58I, canonical isoform) above, with H39P counted along it
Cytochrome c isoform 1 wild type, P00044, sequence (P00044 whole entry, canonical isoform): as the sequence (P00044 whole entry N58I, canonical isoform) above, with I58N counted along it
Cytochrome c isoform 1 H32N|H39N|H45Q|C108S, P00044 H32N H39N H45Q C108S, sequence (P00044 whole entry H32N/H39N/H45Q/C108S, canonical isoform): as the sequence (P00044 whole entry N58I, canonical isoform) above, with H32N, H39N, H45Q, I58N, C108S counted along it
Cytochrome c isoform 1 G35S|N58I, P00044 G35S N58I, sequence (P00044 whole entry G35S/N58I, canonical isoform): as the sequence (P00044 whole entry N58I, canonical isoform) above, with G35S counted along it
Cytochrome c isoform 1 N58I|C108A, P00044 N58I C108A, sequence (P00044 whole entry N58I/C108A, canonical isoform): as the sequence (P00044 whole entry N58I, canonical isoform) above, with C108A counted along it
Cytochrome c isoform 1 P77T, P00044, sequence (P00044 whole entry P77T, canonical isoform): as the sequence (P00044 whole entry N58I, canonical isoform) above, with I58N, P77T counted along it
Cytochrome c isoform 1 C108A, P00044, sequence (P00044 whole entry C108A, canonical isoform): as the sequence (P00044 whole entry N58I, canonical isoform) above, with I58N, C108A counted along it
Creatine kinase B-type wild type, P12277, sequence (P12277 whole entry): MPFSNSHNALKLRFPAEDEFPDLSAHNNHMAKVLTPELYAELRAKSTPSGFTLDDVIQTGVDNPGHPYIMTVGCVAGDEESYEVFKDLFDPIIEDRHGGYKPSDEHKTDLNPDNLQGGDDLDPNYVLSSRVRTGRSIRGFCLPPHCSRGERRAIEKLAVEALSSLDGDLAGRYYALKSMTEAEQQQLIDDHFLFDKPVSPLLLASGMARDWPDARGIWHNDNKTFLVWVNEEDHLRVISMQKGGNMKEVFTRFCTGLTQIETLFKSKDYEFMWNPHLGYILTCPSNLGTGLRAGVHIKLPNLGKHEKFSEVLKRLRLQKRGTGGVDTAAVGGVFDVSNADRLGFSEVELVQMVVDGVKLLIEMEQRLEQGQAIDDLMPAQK
Cytochrome c V93A, P67881, sequence (P67881 whole entry V93A): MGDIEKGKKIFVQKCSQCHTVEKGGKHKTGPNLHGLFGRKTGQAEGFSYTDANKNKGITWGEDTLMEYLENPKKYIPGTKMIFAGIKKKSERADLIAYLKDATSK

## Cytochrome c isoform 1 N58I|C108A, P00044 N58I C108A
[1]
  ddG of mutation (higher = less stable): -6.2 kcal/mol
  heat capacity change of unfolding: 2 kcal/mol/K
[2]
  Tm: 71.5 °C
  change of melting temperature, mutant - wild type (higher = more stable): 25 °C
  heat capacity change of unfolding: 2 kcal/mol/K
  unfolding enthalpy (van 't Hoff): 115 kcal/mol

## Cytochrome c isoform 1 H39P|N58I, P00044 H39P N58I
[1]
  ddG of mutation (higher = less stable): 0.8 kcal/mol
  heat capacity change of unfolding: 2 kcal/mol/K
[2]
  Tm: 43.1 °C
  change of melting temperature, mutant - wild type (higher = more stable): -3.4 °C
  heat capacity change of unfolding: 2 kcal/mol/K
  unfolding enthalpy (van 't Hoff): 61 kcal/mol

## Cytochrome c isoform 1 P77T, P00044
[3]
  ddG of mutation (higher = less stable): 1.7 kcal/mol
  denaturant midpoint (higher = more stable): 0.72 M
  unfolding free energy: 1.9 kcal/mol

## Cytochrome c isoform 1 wild type, P00044
Saccharomyces cerevisiae (strain ATCC 204508 / S288c), pH 4.6, 25 °C, Thermal, Absorbance, Sodium acetate 100 mM, reversible: yes
  unfolding free energy: 5.3 kcal/mol
Saccharomyces cerevisiae (strain ATCC 204508 / S288c), pH 4.6, 25 °C, Thermal, CD, Sodium acetate 100 mM, reversible: yes
  unfolding free energy: 5.3 kcal/mol
Saccharomyces cerevisiae (strain ATCC 204508 / S288c), pH 4.6, 27 °C, GdnHCl, CD, Sodium acetate 50 mM, reversible: yes
  unfolding free energy: 5.6 kcal/mol and 15 kcal/mol
[4]
  denaturant midpoint (higher = more stable): 1.07 M
  unfolding free energy: 3.6 kcal/mol
Saccharomyces cerevisiae (strain ATCC 204508 / S288c), pH 6, 25 °C, Thermal, Absorbance, Sodium phosphate 100 mM, reversible: yes
  unfolding free energy: 3.8 kcal/mol
[5]
  denaturant m value: 3.71 kcal/mol/M
  denaturant midpoint (higher = more stable): 1.06 M
  unfolding free energy: 3.93 kcal/mol
[6]
  denaturant m value: 4.24 kcal/mol/M
  denaturant midpoint (higher = more stable): 1.19 M
  unfolding free energy: 5.05 kcal/mol

## Adenylate kinase F86L, P69441
[7]
  ddG of mutation (higher = less stable): 0.8 kcal/mol
[8]
  Tm: 49.2 °C
  change of melting temperature, mutant - wild type (higher = more stable): -2.6 °C
  unfolding enthalpy (calorimetric): 97 kcal/mol

## Myelin P2 protein (from UniProt P02689) T51P
[9]
  change of melting temperature, mutant - wild type (higher = more stable): -24 °C
  ddG of mutation (higher = less stable): 1.51 kcal/mol

## Adenylate kinase D84H, P69441
[7]
  ddG of mutation (higher = less stable): 1.4 kcal/mol
[8]
  Tm: 44.6 °C
  change of melting temperature, mutant - wild type (higher = more stable): -7.2 °C
  unfolding enthalpy (calorimetric): 63 kcal/mol

## Phosphoenolpyruvate-protein phosphotransferase H189E, P08839
[10]
  Tm: 52.1 °C
  unfolding enthalpy (van 't Hoff): 128 kcal/mol
[11]
  Tm: 53.7 °C
  unfolding enthalpy (calorimetric): 135 kcal/mol

## AKKVLPLLLPPLVXAALGLAXF [wild type]
[12]
  Tm: 42.3 °C
  unfolding enthalpy (calorimetric): 300 kcal/mol

## Cytochrome c isoform 1 G35S|N58I, P00044 G35S N58I
[1]
  ddG of mutation (higher = less stable): 1.5 kcal/mol
  heat capacity change of unfolding: 2 kcal/mol/K
[2]
  Tm: 40.3 °C
  change of melting temperature, mutant - wild type (higher = more stable): -6.2 °C
  heat capacity change of unfolding: 2 kcal/mol/K
  unfolding enthalpy (van 't Hoff): 58 kcal/mol

## Cytochrome c isoform 1 C108A, P00044
[1]
  ddG of mutation (higher = less stable): -2.9 kcal/mol
  heat capacity change of unfolding: 2 kcal/mol/K
[2]
  Tm: 58.1 °C
  change of melting temperature, mutant - wild type (higher = more stable): 11.6 °C
  heat capacity change of unfolding: 2 kcal/mol/K
  unfolding enthalpy (van 't Hoff): 89 kcal/mol

## Cytochrome c isoform 1 N58I, P00044
Saccharomyces cerevisiae (strain ATCC 204508 / S288c), pH 4.6, 27 °C, GdnHCl, CD, Sodium acetate 50 mM, reversible: yes, structure 1YCC
  unfolding free energy: 6.8 kcal/mol and 18 kcal/mol
[13]
  ddG of mutation (higher = less stable): -3.14 kcal/mol
  unfolding free energy: 7.17 kcal/mol
[1]
  ddG of mutation (higher = less stable): -4.3 kcal/mol
  heat capacity change of unfolding: 2 kcal/mol/K

## Adenylate kinase G85V, P69441
[7]
  ddG of mutation (higher = less stable): 2.4 kcal/mol
[8]
  Tm: 40.7 °C
  change of melting temperature, mutant - wild type (higher = more stable): -11.1 °C
  unfolding enthalpy (calorimetric): 70 kcal/mol

## Creatine kinase B-type wild type, P12277
Homo sapiens, pH 8, Thermal, CD, Tris-HCl, transition: 2, reversible: No
  Tm: 47.3 °C
Homo sapiens, pH 8, Thermal, Fluorescence, Tris-HCl, transition: 2, reversible: No
  Tm: 45.7 °C

## Cytochrome c isoform 1 H32N|H39N|H45Q|C108S, P00044 H32N H39N H45Q C108S
[14]
  ddG of mutation (higher = less stable): 1.05 kcal/mol
  denaturant m value: 3.83 kcal/mol/M
  denaturant midpoint (higher = more stable): 1.04 M
  unfolding free energy: 4 kcal/mol

## Cytochrome c V93A, P67881
[15]
  ddG of mutation (higher = less stable): 0.26 kcal/mol
  unfolding free energy: 4.91 kcal/mol
